For series [1] the following is noted: fast injection, dogs; cited from earlier work.
Series [2] in a line: Interaction of heparin with cationically-modified chitosan at pH 7.4 (Azure A method). It counts as binding. How it is done: The concentration of in solution was determined spectrophotometrically using Azure A. 0.9 ml of proper buffer was added to 0.1 ml of heparin solution, followed by addition of 1.0 ml of Azure A solution at 8.0·10^−5 M and the absorption spectrum of the obtained solution was measured. The concentration of heparin was determined on the basis of the intensity of absorption band at 630 nm, which corresponds to monomeric molecules of Azure A. The concentration of free heparin after addition of chitosan was determined by mixing at defined proportions of chitosan solutions in acetic acid. After 10 minutes of energetic shaking the mixtures obtained were centrifuged at 3000 rpm in order to separate the insoluble complex. The concentration of free heparin was determined in the supernatant.
The interaction of modified polymers with heparin in the aqueous solution at pH 7.4 was studied (FIG. 2). By measuring heparin concentration with Azure A method it was shown that cationically-modified chitosan effectively complexes free heparin in solution at pH 7.4.
The efficiency of heparin complexation by both polymers obtained was compared with the efficiency of protamine, a heparin-reversal agent commonly used in medicine (Table 1).

The conditions of series [3]: if not neutralized or removed from the bloodstream; cited from earlier work.
A short description of series [4]: Dynamic light scattering: size of polymer objects and of their complexes with heparin. The format is physicochemical. The following applies: PBS. How it is done: The UV spectra were recorded using a diode-array HP 8452A spectrophotometer in quartz cuvettes with 1 cm optical path. The microscopic images were obtained using Nikon TE-2000 fluorescence microscope. The size of aggregates in suspensions was determined using a Zetasizer Nano ZS instrument from Malvern Instruments Ltd.
Using dynamic light scattering technique the size of objects formed by protamine and ChGl1 in the aqueous solution at pH 7.4 was measured (FIG. 3). The solutions of polymers were prepared in the PBS buffer. The heparin-protamine and heparin-ChGl complexes were obtained by mixing the respective solutions at the volume ratio corresponding to the minimum amount of the polycation needed to completely bind heparin in the solution.
For such mixtures the size and polydispersity of particles were measured.

Where [5] appears, read: minimum amount of polycation needed to completely bind heparin.

As for protamine, in series [1], the hemodynamic effect entry is given as “severe hypotension”. For the same substance, in series [2], the “Mass required to bind 1 mg of heparin in PBS buffer at pH 7.4” value turned out to be 1.2661 mg. Moreover, the “patients with adverse effects” value in series [3] is “about 10%”. For the same substance, the “size (diameter) of objects formed by the polymer” value in series [4] (pH 7.4, without heparin) is “about 4 nm”. Further, in series [4] (setting [5]), the “diameter of aggregates with heparin” value is on record as at most 10 μm and the “polydispersity of complexes with heparin” value is “very polydisperse”.

(Values after patent US20110301120A1, “USE OF A CHITOSAN POLYMER FOR HEPARIN NEUTRALIZATION” (UNIWERSYTET JAGIELLONSKI, priority 2009, published 2011).)
